T1: cynomolgus monkey GITR expressed on HT1080 cells (cynomolgus monkey)
T1 chain: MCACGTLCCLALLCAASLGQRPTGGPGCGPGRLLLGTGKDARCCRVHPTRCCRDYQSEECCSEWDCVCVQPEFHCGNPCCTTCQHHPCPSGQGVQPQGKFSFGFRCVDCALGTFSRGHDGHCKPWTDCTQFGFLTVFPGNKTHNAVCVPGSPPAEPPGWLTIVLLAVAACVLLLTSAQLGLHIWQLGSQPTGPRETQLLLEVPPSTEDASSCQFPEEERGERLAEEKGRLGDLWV

T2: human GITR expressed on cells (human, UniProt Q9Y5U5 26-241)
T2 sequence: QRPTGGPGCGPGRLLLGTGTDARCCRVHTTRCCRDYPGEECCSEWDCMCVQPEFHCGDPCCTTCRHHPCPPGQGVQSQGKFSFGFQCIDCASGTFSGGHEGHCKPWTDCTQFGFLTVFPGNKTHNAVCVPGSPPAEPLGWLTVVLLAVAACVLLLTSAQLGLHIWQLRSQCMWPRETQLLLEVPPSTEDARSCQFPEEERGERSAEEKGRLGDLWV

T3: human GITR-Fc (human, UniProt Q9Y5U5 26-162)
T3 construct: also called recombinant hGITR; wild type human GITR-Fc
T3 sequence: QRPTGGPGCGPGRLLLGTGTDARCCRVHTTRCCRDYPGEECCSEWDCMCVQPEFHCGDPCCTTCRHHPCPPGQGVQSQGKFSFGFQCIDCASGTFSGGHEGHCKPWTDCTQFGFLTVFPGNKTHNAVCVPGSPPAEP

T4: cyno GITR-Fc (cynomolgus monkey)
T4 construct: also called cGITR; cynomolgus GITR
T4 chain: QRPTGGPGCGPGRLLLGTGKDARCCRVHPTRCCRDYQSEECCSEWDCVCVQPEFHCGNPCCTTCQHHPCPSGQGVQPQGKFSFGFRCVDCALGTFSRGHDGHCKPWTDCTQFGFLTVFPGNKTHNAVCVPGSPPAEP


Assays:
[1] = molecular target: T1, cynomolgus monkey GITR expressed on …; assay: cell-based or functional assay
[2] = molecular target: T2, human GITR expressed on cells; assay: cell-based or functional assay
human GITR-Fc = molecular target: T3, human GITR-Fc; assay: BLI Octet RED384, ABP on AHQ sensor, 100 nM antigen, single concentration;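 note: association and dissociation each tracked over 180 s, with dissociation run in antigen-free buffer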
Method: (§1) The sensors were quenched by dipping into an unrelated human IgG1 antibody to prevent non-specific binding of GITR-Fc antigens to the sensor. The sensors were equilibrated in assay buffer for 30 minutes. Baseline was established by dipping the sensors into assay buffer for 60 seconds. Association was monitored for 180 seconds in 100 nM of recombinant antigens, and dissociation was followed for 180 seconds in buffer alone. KD was determined using the kinetic function of the FORTEBIO® Analysis Software using a 1:1 binding model.

cyno GITR-Fc = molecular target: T4, cyno GITR-Fc; assay: as above
Method: as §1

[3] = molecular target: T1, cynomolgus monkey GITR expressed on …; assay: cell-based or functional assay
[4] = molecular target: T2, human GITR expressed on cells; assay: cell-based or functional assay; remark: listed apart in the source

Row | Binder | Average EC50 in cynomolgus HT1080 (IL-8 induction) [1] [nM] | Average EC50 in human HT1080 (IL-8 induction) [2] [nM] | Kd (human GITR-Fc) [nM] | Kd (cyno GITR-Fc) [nM] | EC50 in cynomolgus HT1080 (IL-8 induction) [3] [nM] | EC50 in human HT1080 (IL-8 induction) [4] [nM]
1 | ABP39 (antibody, human IgG1, kappa, N297A, V domains shown, IgG1 N297A, bivalent; also called non-TM ABP corresponding to ABP6) VH: QVQLQESGPGLVKPSETLSLTCAVSGYSISSGAGWGWIRQPPGKGLEWIGLIVHSGSTYYNPSLKSRVTISVDTSKNQFSLKLSSVTAADTAVYYCVLESVRGYGDYGGHHAFDIWGQGTMVTVSS VL: DIQMTQSPSSLSASVGDRVTITCRASQSISSYLNWYQQKPGKAPKLLIYAADSLQSGVPSRFSGSGSGTDFTLTISSLQPEDFATYYCQQEYNTPPTFGGGTKVEIKR | 2.3 | 0.44 | 0.7 | 8.2 | – | –
2 | ABP13 (antibody, human IgG1, kappa, N297A, V domains shown) VH: QVQLVQSGAEVKKPGSSVKVSCKASGGTFSRGAISWVRQAPGQGLEWMGGIIPIEGTAYYAQKFQGRVTITADESTGTAYMELSSLRSEDTAVYYCARQSDYGLPRGMDVWGQGTTVTVSS VL: DIQLTQSPSSVSASVGDRVTITCRASQGISSWLAWYQQKPGKAPKLLIYGASSLQSGVPSRFSGSGSGTDFTLTISSLQPEDFATYYCQQASLFPPTFGGGTKVEIKR | – | – | 5.5 | 6.4 | 15 | 7.8
3 | ABP14 (antibody, human IgG1, kappa, N297A, V domains shown) VH: QVQLVQSGAEVKKPGSSVKVSCKASGGTFSSYAISWVRQAPGQGLEWMGGIIPISGFTNYAQKFQGRVTITADESTSTAYMELSSLRSEDTAVYYCAREGGHYYSGWPYWGQGTLVTVSS VL: EIVLTQSPATLSLSPGERATLSCRASQSVSSYLAWYQQKPGQAPRLLIYDASNRATGIPARFSGSGSGTDFTLTISSLEPEDFAVYYCQQRLVFPPTFGGGTKVEIKR | – | – | 2.8 | 5.9 | 4.1 | 0.6
4 | ABP15 (antibody, human IgG1, kappa, N297A, V domains shown) VH: QVQLVQSGAEVKKPGSSVKVSCKASGGTFSSYAISWVRQAPGQRLEWMGGIIPISGFTNYAQKFQGRVTITADESTSTAYMELSSLRSEDTAVYYCAREGGHYYSGWPYWGQGTLVTVSS VL: EIVLTQSPATLSLSPGERATLSCRASQSVSSYLAWYQQKPGQAPRLLIYDASNRATGIPARFSGSGSGTDFTLTISSLEPEDFAVYYCQQRLVFPPTFGGGTKVEIKR | – | – | 3.3 | 5.2 | 4.5 | 0.6
5 | ABP16 (antibody, human IgG1, kappa, N297A, V domains shown) VH: QVQLVQSGAEVKKPGSSVKVSCKASGGTFSSYAISWVRQAPGQGLEWMGGIIPISGFTNYAQKFQGKVTITADESTSTAYMELSSLRSEDTAVYYCAREGGHYYSGWPYWGQGTLVTVSS VL: EIVLTQSPATLSLSPGERATLSCRASQSVSSYLAWYQQKPGQAPRLLIYDASNRATGIPARFSGSGSGTDFTLTISSLEPEDFAVYYCQQRLVFPPTFGGGTKVEIKR | – | – | 2.9 | 5.4 | 3.8 | 0.6
6 | ABP17 (antibody, human IgG1, kappa, N297A, V domains shown) VH: QVQLVQSGAEVKKPGSSVKVSCKASGGTFVRYAISWVRQAPGQGLEWMGGIIPIFGEAQYAQRFQGRVTITADESTSTAYMELSSLRSEDTAVYYCAREGYYYGALPYWGQGTLVTVSS VL: EIVLTQSPATLSLSPGERATLSCRASQSVSSYLAWYQQKPGQAPRLLIYDASNRATGIPARFSGSGSGTDFTLTISSLEPEDFAVYYCQQHSVFPPTFGGGTKVEIKR | – | – | 4.2 | 4.6 | 8.4 | 5.3
7 | ABP18 (antibody, human IgG1, kappa, N297A, V domains shown) VH: QVQLVQSGAEVKKPGSSVKVSCKASGGTFVRYAISWVRQAPGQGLEWMGGIIPIFGEAQYAQKFRGRATITADESTSTAYMELSSLRSEDTAVYYCAREGYYYGALPYWGQGTLVTVSS VL: EIVLTQSPATLSLSPGERATLSCRASQSVSSYLAWYQQKPGQAPRLLIYDASNRATGIPARFSGSGSGTDFTLTISSLEPEDFAVYYCQQHSVFPPTFGGGTKVEIKR | – | – | 4 | 8.4 | 13.2 | 2.1
8 | ABP11 (antibody, human IgG1, kappa, N297A, V domains shown) VH: QVQLVQSGAEVKRPGSSVKVSCKASGGTFSSYYISWVRQVPGQGLEWMGGIIPVPGTANYAQKFQGRVTITADESTSTAYMELSSLRSEDTAVYYCARAGGGYARGDHYYGMDVWGQGTTVTVSS VL: not shown | – | – | 3.1 | 8.5 | 21.6 | 3.9
9 | ABP12 (antibody, human IgG1, kappa, N297A, V domains shown) VH: QVQLVQSGAEVKKPGSSVKVSCKASGGTFSSYYISWVRQAPGQRLEWMGGIIPVPGTANYAQKFQGRVTITADESTSTAYMELSSLRSEDTAVYYCARAGGGYARGDHYYGMDVWGQGTTVTVSS VL: not shown | – | – | 2.8 | 7.9 | 28.4 | 3.5

Continued by falling Kd (human GITR-Fc), values first:

Row | Average EC50 in cynomolgus HT1080 (IL-8 induction) [1] [nM] | Average EC50 in human HT1080 (IL-8 induction) [2] [nM] | Kd (human GITR-Fc) [nM] | Kd (cyno GITR-Fc) [nM] | EC50 in cynomolgus HT1080 (IL-8 induction) [3] [nM] | EC50 in human HT1080 (IL-8 induction) [4] [nM] | Binder
10 | 1.1 | 0.34 | 2.2 | 4.9 | – | – | ABP40 (antibody, human IgG1, kappa, N297A, V domains shown, IgG1 N297A, bivalent; also called non-TM ABP corresponding to ABP7) VH: QVQLQESGPGLVKPSETLSLTCAVSGYSISSEYMWGWIRQPPGKGLEWIGLIYHSGKTYYNPSLKSRVTISVDTSKNQFSLKLSSVTAADTAVYYCAREADRGYGDYGGHHAFDIWGQGTMVTVSS VL: DIQMTQSPSSLSASVGDRVTITCRASQSINSYLNWYQQKPGKAPKLLIYAASSLDSGVPSRFSGSGSGTDFTLTISSLQPEDFATYYCQQEYNTPPTFGGGTKVEIKR
11 | 2 | 0.88 | 1.5 | 5.7 | – | – | ABP35 (antibody, human IgG1, kappa, N297A, V domains shown, IgG1 N297A, standard bivalent format; also called ABP35 IgG1; non-TM ABP corresponding to ABP1) VH: QVQLQESGPGLVKPSETLSLTCAVSGYSISSGLGWGWIRQPPGKGLEWIGGIYESGSTYYNPSLKSRVTISVDTSKNQFSLKLSSVTAADTAVYYCAHERVRGYGDYGGHHAFDIWGQGTMVTVSS VL: not shown
12 | 8.8 | 0.58 | 1.4 | 7.5 | – | – | ABP36 (antibody, human IgG1, kappa, N297A, V domains shown, IgG1 N297A, bivalent; also called non-TM ABP corresponding to ABP2) VH: QVQLQESGPGLVKPSQTLSLTCTVSGGSISSGGAVWSWIRQHPGKGLEWIGGIAYSGSTYYNPSLKSRVTISVDTSKNQFSLKLSSVTAADTAVYYCADENVRGYGDYGGHHAFDIWGQGTMVTVSS VL: not shown
13 | 1.7 | 0.19 | 0.7 | 8.1 | – | – | ABP37 (antibody, human IgG1, kappa, N297A, V domains shown, IgG1 N297A, bivalent; also called non-TM ABP corresponding to ABP3) VH: QVQLQESGPGLVKPSETLSLTCAVSGYSISSGAGWGWIRQPPGKGLEWIGLIVHSGSTYYNPSLKSRVTISVDTSKNQFSLKLSSVTAADTAVYYCVLESVRGYGDYGGHHAFDIWGQGTMVTVSS VL: DIQMTQSPSSLSASVGDRVTITCRASQSISSYLNWYQQKPGKAPKLLIYAASSLKYGVPSRFSGSGSGTDFTLTISSLQPEDFATYYCQQEYNTPPTFGGGTKVEIKR
14 | 14.3 | 0.33 | 0.6 | 11.1 | – | – | ABP38 (antibody, human IgG1, kappa, N297A, V domains shown, IgG1 N297A, bivalent; also called non-TM ABP corresponding to ABP4/5) VH: QVQLQESGPGLVKPSETLSLTCAVSGYSISSGAGWGWIRQPPGKGPEWIGLIVHSGSTYYNPSLKSRVTISVDTSKNQFSLKLSSVTAADTAVYYCVLESVRGYGDYGGHHAFDIWGQGTMVTVSS VL: DIQMTQSPSSLSASVGDRVTITCRASKSIDSYLNWYQQKPGKAPKLLIYAASSLQSGVPSRFSGSGSGTDFTLTISSLQPEDFATYYCQQEYNTPPTFGGGTKVEIKR

From patent publication US20210269542A1 (POTENZA THERAPEUTICS, published 2021)
